According to patent US20080220446:

T1: β2GPI purified from fresh human plasma, P02749
T1 chain: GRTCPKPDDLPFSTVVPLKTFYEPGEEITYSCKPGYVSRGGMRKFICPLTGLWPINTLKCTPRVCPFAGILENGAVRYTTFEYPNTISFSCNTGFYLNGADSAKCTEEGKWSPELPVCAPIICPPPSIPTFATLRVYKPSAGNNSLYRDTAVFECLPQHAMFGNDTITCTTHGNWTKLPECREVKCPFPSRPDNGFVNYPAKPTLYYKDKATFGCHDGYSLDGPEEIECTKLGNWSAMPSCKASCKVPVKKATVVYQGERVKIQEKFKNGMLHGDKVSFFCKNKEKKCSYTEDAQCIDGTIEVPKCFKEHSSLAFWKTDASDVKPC

T2: β2GPI exposed to cardiolipin (CL), P02749
T2 chain: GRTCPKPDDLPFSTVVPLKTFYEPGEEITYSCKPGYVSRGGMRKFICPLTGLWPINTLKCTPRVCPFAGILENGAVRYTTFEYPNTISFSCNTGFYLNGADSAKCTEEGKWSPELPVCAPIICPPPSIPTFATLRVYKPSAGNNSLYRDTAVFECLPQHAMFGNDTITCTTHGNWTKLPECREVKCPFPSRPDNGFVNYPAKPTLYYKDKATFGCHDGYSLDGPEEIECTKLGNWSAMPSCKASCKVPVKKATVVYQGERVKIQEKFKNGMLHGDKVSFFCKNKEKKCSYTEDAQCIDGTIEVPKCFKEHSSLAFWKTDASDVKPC

T3: alkyl-β2gpi (reduced and alkylated β2-glycoprotein I), P02749
T3 chain: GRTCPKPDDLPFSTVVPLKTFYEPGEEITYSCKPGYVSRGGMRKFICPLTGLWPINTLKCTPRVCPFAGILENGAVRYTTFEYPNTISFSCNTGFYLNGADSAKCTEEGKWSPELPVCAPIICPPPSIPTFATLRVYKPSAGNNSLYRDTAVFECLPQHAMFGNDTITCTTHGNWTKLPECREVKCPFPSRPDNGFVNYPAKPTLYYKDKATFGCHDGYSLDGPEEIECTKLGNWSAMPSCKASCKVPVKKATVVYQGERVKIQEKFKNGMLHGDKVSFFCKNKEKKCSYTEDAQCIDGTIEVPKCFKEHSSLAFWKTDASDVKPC

T4: recombinant human β2-glycoprotein I (insect cells), P02749
T4 chain: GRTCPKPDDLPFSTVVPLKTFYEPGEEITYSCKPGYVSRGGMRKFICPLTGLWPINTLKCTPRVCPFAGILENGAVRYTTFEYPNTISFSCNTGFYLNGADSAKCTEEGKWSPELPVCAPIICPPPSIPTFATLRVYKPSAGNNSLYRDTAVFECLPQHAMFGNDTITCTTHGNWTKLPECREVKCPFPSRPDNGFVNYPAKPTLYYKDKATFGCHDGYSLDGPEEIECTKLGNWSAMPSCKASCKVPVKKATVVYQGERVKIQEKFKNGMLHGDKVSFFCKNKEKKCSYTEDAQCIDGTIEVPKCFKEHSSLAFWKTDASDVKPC


What was measured:
[1] = biological target: human modified gelatin (Gelofusine)
[2] = biological target: amyloid γ-globulins (denatured human γ-globulins)
[3] = biological target: T1, β2GPI purified from fresh human plasma, …
[4] = biological target: heat/acid-denatured human glucagon, P01275
[5] = biological target: human glucagon (Glucagen), freshly dissolved, P01275
[6] = biological target: T2, β2GPI exposed to cardiolipin (CL), …
[7] = biological target: T3, alkyl-β2gpi (reduced and alkylated …)
[8] = biological target: human coagulation factor VIII (FVIII) (Aafact), P00451
[9] = biological target: native murine serum albumin (nMSA), P07724
[10] = biological target: endostatin (EntreMed, Inc.), P39060
[11] = biological target: T4, recombinant human β2-glycoprotein I …

Sequence of human glucagon (Glucagen), freshly dissolved, P01275 (P01275 53-81): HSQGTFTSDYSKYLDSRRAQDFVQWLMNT
Sequence of endostatin (EntreMed, Inc.), P39060 (P39060 whole entry, looked up): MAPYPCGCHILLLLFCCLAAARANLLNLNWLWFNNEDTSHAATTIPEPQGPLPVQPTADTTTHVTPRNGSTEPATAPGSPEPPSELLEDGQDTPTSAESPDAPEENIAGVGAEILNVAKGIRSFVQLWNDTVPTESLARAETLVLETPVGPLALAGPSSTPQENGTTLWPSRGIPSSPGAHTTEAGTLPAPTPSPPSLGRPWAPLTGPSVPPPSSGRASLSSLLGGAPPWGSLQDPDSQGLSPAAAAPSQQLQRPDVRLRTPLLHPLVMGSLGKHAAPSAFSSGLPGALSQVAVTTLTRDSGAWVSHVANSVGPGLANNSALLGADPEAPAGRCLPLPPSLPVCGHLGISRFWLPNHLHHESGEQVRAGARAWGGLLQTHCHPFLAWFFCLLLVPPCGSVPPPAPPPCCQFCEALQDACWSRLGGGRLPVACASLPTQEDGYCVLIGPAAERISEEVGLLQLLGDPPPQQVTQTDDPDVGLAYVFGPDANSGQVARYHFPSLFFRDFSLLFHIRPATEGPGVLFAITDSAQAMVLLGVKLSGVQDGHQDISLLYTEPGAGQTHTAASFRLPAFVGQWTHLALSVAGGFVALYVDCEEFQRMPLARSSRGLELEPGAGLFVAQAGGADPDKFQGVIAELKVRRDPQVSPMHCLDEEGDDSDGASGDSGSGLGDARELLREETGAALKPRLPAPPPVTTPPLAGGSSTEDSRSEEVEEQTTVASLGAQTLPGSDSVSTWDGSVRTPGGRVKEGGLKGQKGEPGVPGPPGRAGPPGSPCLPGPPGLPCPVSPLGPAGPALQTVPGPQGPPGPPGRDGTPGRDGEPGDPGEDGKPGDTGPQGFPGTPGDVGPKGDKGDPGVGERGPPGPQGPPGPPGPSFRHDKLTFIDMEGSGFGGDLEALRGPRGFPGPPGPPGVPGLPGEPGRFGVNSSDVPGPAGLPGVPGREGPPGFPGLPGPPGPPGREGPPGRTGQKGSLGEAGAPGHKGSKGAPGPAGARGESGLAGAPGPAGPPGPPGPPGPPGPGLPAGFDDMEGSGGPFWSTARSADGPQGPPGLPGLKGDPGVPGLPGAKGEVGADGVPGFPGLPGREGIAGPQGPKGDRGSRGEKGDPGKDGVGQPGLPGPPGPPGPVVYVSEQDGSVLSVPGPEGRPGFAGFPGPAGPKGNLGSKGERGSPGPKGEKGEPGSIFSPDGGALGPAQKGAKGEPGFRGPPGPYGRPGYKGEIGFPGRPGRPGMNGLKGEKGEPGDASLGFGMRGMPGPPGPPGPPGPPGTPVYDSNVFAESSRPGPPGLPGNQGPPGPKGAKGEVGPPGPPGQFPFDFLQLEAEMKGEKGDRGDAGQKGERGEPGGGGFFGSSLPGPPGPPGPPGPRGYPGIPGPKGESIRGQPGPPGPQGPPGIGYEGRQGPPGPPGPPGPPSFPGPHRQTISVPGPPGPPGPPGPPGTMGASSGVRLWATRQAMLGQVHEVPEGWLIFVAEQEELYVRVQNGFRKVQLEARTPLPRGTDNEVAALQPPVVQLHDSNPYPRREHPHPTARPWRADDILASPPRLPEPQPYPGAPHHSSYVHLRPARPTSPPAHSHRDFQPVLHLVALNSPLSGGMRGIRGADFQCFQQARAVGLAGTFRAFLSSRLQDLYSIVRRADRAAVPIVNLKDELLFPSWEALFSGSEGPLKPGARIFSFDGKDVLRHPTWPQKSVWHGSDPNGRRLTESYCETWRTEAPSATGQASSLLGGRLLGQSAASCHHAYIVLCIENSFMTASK
Sequence of human coagulation factor VIII (FVIII) (Aafact), P00451 (P00451 whole entry, looked up): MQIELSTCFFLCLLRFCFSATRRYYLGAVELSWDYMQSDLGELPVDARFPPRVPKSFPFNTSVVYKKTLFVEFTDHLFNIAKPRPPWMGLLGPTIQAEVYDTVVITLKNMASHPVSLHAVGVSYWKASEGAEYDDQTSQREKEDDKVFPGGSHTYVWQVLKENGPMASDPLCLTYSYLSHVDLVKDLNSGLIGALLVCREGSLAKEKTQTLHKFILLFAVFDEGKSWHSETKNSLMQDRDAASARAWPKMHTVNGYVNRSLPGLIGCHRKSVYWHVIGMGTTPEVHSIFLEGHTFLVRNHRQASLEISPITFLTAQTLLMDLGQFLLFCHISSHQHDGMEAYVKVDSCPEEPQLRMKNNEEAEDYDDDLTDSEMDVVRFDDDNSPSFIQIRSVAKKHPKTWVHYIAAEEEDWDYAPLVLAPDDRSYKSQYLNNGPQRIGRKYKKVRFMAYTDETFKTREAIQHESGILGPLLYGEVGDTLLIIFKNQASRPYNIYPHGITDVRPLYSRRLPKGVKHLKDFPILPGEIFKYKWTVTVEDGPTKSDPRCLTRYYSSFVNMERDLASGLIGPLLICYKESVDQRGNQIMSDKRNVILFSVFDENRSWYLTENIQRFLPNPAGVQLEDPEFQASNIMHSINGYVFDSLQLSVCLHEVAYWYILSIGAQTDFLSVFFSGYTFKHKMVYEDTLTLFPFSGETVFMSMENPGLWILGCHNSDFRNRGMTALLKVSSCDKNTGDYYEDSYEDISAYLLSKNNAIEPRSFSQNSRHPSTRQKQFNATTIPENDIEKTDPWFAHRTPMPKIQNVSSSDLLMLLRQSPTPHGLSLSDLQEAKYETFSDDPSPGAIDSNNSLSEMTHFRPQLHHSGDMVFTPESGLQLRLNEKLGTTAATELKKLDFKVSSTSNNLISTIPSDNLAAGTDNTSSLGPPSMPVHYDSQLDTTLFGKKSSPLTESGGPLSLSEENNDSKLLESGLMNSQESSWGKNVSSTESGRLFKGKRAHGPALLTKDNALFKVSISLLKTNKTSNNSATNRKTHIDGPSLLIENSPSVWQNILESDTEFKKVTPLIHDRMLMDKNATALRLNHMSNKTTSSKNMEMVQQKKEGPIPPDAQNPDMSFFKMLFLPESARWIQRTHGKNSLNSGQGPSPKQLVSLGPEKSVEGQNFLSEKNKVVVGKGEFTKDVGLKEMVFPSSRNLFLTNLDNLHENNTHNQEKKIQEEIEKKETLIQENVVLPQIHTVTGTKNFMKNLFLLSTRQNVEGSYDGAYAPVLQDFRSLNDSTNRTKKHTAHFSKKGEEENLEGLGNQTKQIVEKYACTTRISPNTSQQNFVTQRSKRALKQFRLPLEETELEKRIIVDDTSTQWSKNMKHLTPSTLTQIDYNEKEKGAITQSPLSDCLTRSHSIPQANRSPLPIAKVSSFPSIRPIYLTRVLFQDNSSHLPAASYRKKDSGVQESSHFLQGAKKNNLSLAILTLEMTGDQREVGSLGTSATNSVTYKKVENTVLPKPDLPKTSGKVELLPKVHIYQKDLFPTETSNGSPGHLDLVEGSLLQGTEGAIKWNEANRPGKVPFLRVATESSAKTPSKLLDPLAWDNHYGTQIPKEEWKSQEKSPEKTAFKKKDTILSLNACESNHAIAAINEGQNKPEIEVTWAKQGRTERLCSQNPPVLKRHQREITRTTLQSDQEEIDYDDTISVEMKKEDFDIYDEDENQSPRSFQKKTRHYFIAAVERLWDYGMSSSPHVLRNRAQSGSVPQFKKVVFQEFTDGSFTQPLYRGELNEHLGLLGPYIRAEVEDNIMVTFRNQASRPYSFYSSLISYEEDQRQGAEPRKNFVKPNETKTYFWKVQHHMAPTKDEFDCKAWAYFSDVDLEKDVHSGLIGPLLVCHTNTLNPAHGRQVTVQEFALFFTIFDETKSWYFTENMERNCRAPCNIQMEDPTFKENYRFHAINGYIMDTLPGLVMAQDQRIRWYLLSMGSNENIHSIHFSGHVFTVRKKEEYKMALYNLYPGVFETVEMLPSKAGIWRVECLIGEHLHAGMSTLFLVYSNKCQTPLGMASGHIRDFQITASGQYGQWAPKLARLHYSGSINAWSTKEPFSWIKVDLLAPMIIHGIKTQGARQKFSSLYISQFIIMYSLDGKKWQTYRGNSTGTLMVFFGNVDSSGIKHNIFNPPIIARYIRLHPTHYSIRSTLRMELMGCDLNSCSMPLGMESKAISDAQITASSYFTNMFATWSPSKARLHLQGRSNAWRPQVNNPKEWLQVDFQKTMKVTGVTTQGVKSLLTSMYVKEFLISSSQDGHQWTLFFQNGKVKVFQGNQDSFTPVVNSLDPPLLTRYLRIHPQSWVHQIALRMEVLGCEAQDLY
Sequence of native murine serum albumin (nMSA), P07724 (P07724 25-608): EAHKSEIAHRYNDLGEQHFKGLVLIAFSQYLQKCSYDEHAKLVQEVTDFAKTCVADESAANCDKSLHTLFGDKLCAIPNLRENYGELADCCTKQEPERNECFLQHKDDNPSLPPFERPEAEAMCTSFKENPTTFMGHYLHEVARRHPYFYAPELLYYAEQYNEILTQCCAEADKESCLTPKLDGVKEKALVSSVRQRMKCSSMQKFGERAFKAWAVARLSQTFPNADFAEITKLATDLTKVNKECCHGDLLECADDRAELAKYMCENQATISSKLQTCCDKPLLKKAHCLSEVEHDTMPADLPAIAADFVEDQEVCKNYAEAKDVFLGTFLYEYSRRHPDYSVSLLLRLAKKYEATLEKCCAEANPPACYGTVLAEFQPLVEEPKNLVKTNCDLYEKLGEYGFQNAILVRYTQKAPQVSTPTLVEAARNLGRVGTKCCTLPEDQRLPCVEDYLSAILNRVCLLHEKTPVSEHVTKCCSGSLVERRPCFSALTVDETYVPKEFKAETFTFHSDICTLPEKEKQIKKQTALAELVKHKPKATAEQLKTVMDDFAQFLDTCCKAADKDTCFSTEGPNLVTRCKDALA

| Protein | factor XII activation (chromogenic kallikrein assay) [1] | tPA-mediated activation of Plg (chromogenic Plg-activation assay) [2] | tPA-mediated conversion of Plg to Pls (substrate S-2251) [3] | tPA activation [4] | tPA activating potential [5] | tPA activation, Max. Activation (%) (tPA-dependent plasminogen activation, % of standardized positive control) [5] | generation of plasmin from tPA/plasminogen [6] | ability to activate tPA/plasminogen [7] | tPA activation, Max. Activation (%) (tPA-dependent plasminogen activation, % of standardized positive control) [8] | stimulation of tPA activation [9] | tPA activating properties (Plg-activation assay) [10] | tPA-mediated conversion of Plg to Pls (substrate S-2251) [11] |
| --- | --- | --- | --- | --- | --- | --- | --- | --- | --- | --- | --- | --- |
| factor XII (purified human factor XII from plasma) (protein) IPPWEAPKEHKYKAEEHTVVLTVTGEPCHFPFQYHRQLYHKCTHKGRPGPQPWCATTPNFDQDQRWGYCLEPKKVKDHCSKHSPCQKGGTCVNMPSGPHCLCPQHLTGNHCQKEKCFEPQLLRFFHKNEIWYRTEQAAVARCQCKGPDAHCQRLASQACRTNPCLHGGRCLEVEGHRLCHCPVGYTGAFCDVDTKASCYDGRGLSYRGLARTTLSGAPCQPWASEATYRNVTAEQARNWGLGGHAFCRNPDNDIRPWCFVLNRDRLSWEYCDLAQCQTPTQAAPPTPVSPRLHVPLMPAQPAPPKPQPTTRTPPQSQTPGALPAKREQPPSLTRNGPLSCGQRLRKSLSSMTRVVGGLVALRGAHPYIAALYWGHSFCAGSLIAPCWVLTAAHCLQDRPAPEDLTVVLGQERRNHSCEPCQTLAVRSYRLHEAFSPVSYQHDLALLRLQEDADGSCALLSPYVQPVCLPSGAARPSETTLCQVAGWGHQFEGAEEYASFLQEAQVPFLSLERCSAPDVHGSSILPGMLCAGFLEGGTDACQGDSGGPLVCEDQAAERRLTLQGIISWGSGCGDRNKPGVYTDVAYYLAWIREHTVS | Only gelatin kept at 37 °C activated factor XII |  |  |  |  |  |  |  |  |  |  |  |
| tissue-type plasminogen activator (tPA) (protein) SYQVICRDEKTQMIYQQHQSWLRPVLRSNRVEYCWCNSGRAQCHSVPVKSCSEPRCFNGGTCQQALYFSDFVCQCPEGFAGKCCEIDTRATCYEDQGISYRGTWSTAESGAECTNWNSSALAQKPYSGRRPDAIRLGLGNHNYCRNPDRDSKPWCYVFKAGKYSSEFCSTPACSEGNSDCYFGNGSAYRGTHSLTESGASCLPWNSMILIGKVYTAQNPSAQALGLGKHNYCRNPDGDAKPWCHVLKNRRLTWEYCDVPSCSTCGLRQYSQPQFRIKGGLFADIASHPWQAAIFAKHRRSPGERFLCGGILISSCWILSAAHCFQERFPPHHLTVILGRTYRVVPGEEEQKFEVEKYIVHKEFDDDTYDNDIALLQLKSDSSRCAQESSVVRTVCLPPADLQLPDWTECELSGYGKHEALSPFYSERLKEAHVRLYPSSRCTSQHLLNRTVTDNMLCAGDTRSGGPQANLHDACQGDSGGPLVCLNDGRMTLVGIISWGLGCGQKDVPGVYTKVTNYLDWIRDNMRP |  | Centrifugation had no effect on the stimulatory effect of Hb-AGE and amyloid γ-globulins on tPA-mediated activation of Plg | Recombinant β2GPI, but not β2GPI purified from fresh plasma stimulate tPA-mediated conversion of Plg to Pls | a potent activator of tPA was obtained | at high glucagon concentration, also native glucagon had some tPA activating potential | 11.2% | Generation of plasmin from tPA/plasminogen is accelerated when β2gpi is exposed to cardiolipin (CL-β2gpi) | Alkylation of β2gpi results in amyloid-like properties when the ability to activate tPA/plasminogen is considered | 4.22% | also native MSA enhanced ThT fluorescence to some extent, but this was not reflected by stimulation of tPA activation | the absence of tPA activating properties in 100 µg ml^-1 endostatin | Recombinant β2GPI, but not β2GPI purified from fresh plasma stimulate tPA-mediated conversion of Plg to Pls |
